One test concerns the target full-length beta-Catenin (Uniprot ID P35222) (Homo sapiens (Human)) (UniProt P35222). The test can be described thus: fluorescence polarization competition; full-length beta-catenin, 5FAM-TCF4(10-53) probe displaced. (Fluorescence polarisation rises when a labelled molecule tumbles more slowly, as on binding a larger partner.)
Target sequence in this assay (P35222 whole entry): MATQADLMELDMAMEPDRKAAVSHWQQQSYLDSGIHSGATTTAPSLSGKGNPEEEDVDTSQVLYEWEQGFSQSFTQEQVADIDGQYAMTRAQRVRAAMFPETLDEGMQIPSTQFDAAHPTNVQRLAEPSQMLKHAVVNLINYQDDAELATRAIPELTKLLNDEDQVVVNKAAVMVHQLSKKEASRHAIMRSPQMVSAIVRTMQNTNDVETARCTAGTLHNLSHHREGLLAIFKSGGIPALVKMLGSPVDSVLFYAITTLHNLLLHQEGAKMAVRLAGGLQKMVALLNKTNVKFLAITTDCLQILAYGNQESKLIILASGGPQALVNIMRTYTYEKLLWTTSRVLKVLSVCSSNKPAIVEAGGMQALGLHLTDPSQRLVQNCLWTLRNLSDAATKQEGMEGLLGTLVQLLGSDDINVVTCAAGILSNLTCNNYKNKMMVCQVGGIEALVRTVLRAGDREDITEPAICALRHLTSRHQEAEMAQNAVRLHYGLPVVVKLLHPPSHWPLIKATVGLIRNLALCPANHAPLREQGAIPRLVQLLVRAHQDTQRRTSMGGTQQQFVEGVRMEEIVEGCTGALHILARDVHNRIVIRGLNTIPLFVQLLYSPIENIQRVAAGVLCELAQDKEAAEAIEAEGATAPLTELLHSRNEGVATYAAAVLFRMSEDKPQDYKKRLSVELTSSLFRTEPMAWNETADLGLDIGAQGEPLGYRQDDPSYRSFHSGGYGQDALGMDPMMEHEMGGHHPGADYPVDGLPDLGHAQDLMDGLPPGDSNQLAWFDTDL
Turning to “Ac-PL3-Asp-Npg-B5-Asp-Asp-Ala-Ala-Phe-Leu-PyrS2-2CNF-BztA-Gln-NH2 (peptide)”, the IC50 (commonly the concentration that inhibits the measured activity by half) amounted to 16 nM.
The substance “Ac-PL3-Asp-Npg-B5-Asp-Asp-Ala-Ala-Phe-Leu-PyrS2-3CNF-BztA-Gln-NH2 (peptide)” returned an IC50 of 81 nM.
In turn, “Ac-PL3-Asp-Npg-B5-Asp-Asp-Ala-Ala-Phe-Leu-PyrS2-4CNF-BztA-Gln-NH2 (peptide)” registered an IC50 of 987 nM.
Take “MeSO2-PL3-Asp-Npg-B5-Asp-Asp-Ala-Ala-Phe-Asn-PyrS2-3Thi-BztA-Gln-NH2 (peptide)”: the IC50 was determined as 10 nM.
On to “MeSO2-PL3-Asp-Npg-B5-Asp-TfeGA-Ala-Ala-Phe-Asn-PyrS2-3Thi-BztA-Gln-NH2 (peptide)”, for which the IC50 is 7 nM.

For another test the target is unchanged. The test can be described thus: fluorescence polarization competition; displacement of 5FAM-TCF4(10-53) from full-length beta-catenin.
Target sequence in this assay (P35222 whole entry): as above
“I-1519: Ac-PL3-Asp-Cha-B5-Asp-Asp-Ala-Ala-Phe-Leu-PyrS2-3Thi-BztA-Gln-NH2 (peptide)”: the IC50 amounted to 10 nM.

For a further test the target is unchanged. As to the kind of experiment: fluorescence polarization competition; full-length beta-catenin, 5FAM-TCF4(10-53) probe as competitor.
Target sequence in this assay (P35222 2-781 limits assumed): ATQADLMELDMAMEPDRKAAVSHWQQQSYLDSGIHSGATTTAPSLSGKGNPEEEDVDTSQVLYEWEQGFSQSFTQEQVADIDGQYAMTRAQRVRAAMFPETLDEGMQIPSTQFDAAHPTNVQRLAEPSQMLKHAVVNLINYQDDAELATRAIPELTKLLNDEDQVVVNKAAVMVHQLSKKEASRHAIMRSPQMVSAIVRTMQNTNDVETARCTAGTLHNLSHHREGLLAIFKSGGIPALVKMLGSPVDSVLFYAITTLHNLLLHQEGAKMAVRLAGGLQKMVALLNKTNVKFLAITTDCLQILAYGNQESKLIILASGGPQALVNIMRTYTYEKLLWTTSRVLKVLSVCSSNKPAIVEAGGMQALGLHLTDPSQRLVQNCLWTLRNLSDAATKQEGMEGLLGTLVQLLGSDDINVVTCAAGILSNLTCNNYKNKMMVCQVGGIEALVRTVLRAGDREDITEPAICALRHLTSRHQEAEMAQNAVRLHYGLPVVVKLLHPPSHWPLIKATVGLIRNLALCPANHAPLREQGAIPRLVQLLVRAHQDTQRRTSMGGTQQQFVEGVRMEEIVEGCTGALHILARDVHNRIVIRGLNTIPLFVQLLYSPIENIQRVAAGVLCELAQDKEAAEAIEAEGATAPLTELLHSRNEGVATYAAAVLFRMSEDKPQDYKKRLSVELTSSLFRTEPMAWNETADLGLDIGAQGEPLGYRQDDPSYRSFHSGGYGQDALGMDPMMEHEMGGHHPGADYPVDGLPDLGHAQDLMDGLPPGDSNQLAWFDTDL
“Ac-PL3-Asp-Npg-B5-Asp-3COOHF-Ala-Ala-Phe-Leu-PyrS2-2F3MeF-2F3MeW-Gln-NH2 (peptide)” gave an IC50 of 6290 nM.
On to “Ac-PL3-Asp-Npg-B5-Asp-3COOHF-Ala-Ala-Phe-Leu-PyrS2-2F3MeF-SbMe2NapA-Gln-NH2 (peptide)”, for which the IC50 was determined as 79 nM.
The substance “Ac-PL3-Asp-Npg-B5-Asp-[CH2CChCO2H]TriAzDap-Ala-Ala-Phe-Leu-PyrS2-3Thi-BztA-Gln-NH2 (peptide)” displayed a 50% inhibitory concentration (IC50) of 5 nM.
“Ac-PL3-Asp-Npg-B5-Asp-[CH2CCpCO2H]TriAzDap-Ala-Ala-Phe-Leu-PyrS2-3Thi-BztA-Gln-NH2 (peptide)” gave a concentration for half-maximal inhibition (IC50) of 5 nM.

Source of the values: patent US20240116985A1, “STAPLED PEPTIDES AND METHODS THEREOF” (priority 2020, published 2024).
